Source: paper doi:10.1101/2024.11.14.623549 (bioRxiv, 2024)
Blank lines part the entries; values can stand above or below the binder they belong to.

B2: Clathrin Light Chain (CLC), residues 1-233 (natural protein, Saccharomyces cerevisiae, UniProt P17891 1-233, looked up)
chain: MSEKFPPLEDQNIDFTPNDKKDDDTDFLKREAEILGDEFKTEQDDILETEASPAKDDDEIRDFEEQFPDINSANGAVSSDQNGSATVSSGNDNGEADDDFSTFEGANQSTESVKEDRSEVVDQWKQRRAVEIHEKDLKDEELKKELQDEAIKHIDDFYDSYNKKKEQQLEDAAKEAEAFLKKRDEFFGQDNTTWDRALQLINQDDADIIGGRDRSKLKEILLRLKGNAKAPGA
modifications: RED-NHS dye label
B3: Sla2ccRTH (Sla2 residues 351-968) (domain or fragment, Saccharomyces cerevisiae, UniProt P33338 351-968, looked up)
chain: ATAQMQPDFWANQQAQFANEQNRLEQERVQQLQQQQAQQELFQQQLQKAQQDMMNMQLQQQNQHQNDLIALTNQYEKDQALLQQYDQRVQQLESEITTMDSTASKQLANKDEQLTALQDQLDVWERKYESLAKLYSQLRQEHLNLLPRFKKLQLKVNSAQESIQKKEQLEHKLKQKDLQMAELVKDRDRARLELERSINNAEADSAAATAAAETMTQDKMNPILDAILESGINTIQESVYNLDSPLSWSGPLTPPTFLLSLLESTSENATEFATSFNNLIVDGLAHGDQTEVIHCVSDFSTSMATLVTNSKAYAVTTLPQEQSDQILTLVKRCAREAQYFFEDLMSENLNQVGDEEKTDIVINANVDMQEKLQELSLAIEPLLNIQSVKSNKETNPHSELVATADKIVKSSEHLRVDVPKPLLSLALMIIDAVVALVKAAIQCQNEIATTTSIPLNQFYLKNSRWTEGLISAAKAVAGATNVLITTASKLITSEDNENTSPEQFIVASKEVAASTIQLVAASRVKTSIHSKAQDKLEHCSKDVTDACRSLGNHVMGMIEDDHSTSQQQQPLDFTSEHTLKTAEMEQQVEILKLEQSLSNARKRLGEIRRHAYYNQDDD
B5: Sla1 SH3_3 domain (Sla1 residues 355-414) (domain or fragment, Saccharomyces cerevisiae)
chain: GAMAKKRGIVQYDFMAESQDELTIKSGDKVYILDDKKSKDWWMCQLVDSGKSGLVPAQFIEPVR
modifications: also: RED-NHS dye label, site not given here

Tests used:
[1] = molecular target: B5; assay: MST
[2] = molecular target: B3; assay: mass photometry
Sla2cc ΔSite1 (Δ515-546) = molecular target: T1, Sla2cc ΔSite1 (Δ515-546) (Saccharomyces cerevisiae, UniProt P33338 296-767, Δ515-546); assay: MST
T1 sequence (looked up): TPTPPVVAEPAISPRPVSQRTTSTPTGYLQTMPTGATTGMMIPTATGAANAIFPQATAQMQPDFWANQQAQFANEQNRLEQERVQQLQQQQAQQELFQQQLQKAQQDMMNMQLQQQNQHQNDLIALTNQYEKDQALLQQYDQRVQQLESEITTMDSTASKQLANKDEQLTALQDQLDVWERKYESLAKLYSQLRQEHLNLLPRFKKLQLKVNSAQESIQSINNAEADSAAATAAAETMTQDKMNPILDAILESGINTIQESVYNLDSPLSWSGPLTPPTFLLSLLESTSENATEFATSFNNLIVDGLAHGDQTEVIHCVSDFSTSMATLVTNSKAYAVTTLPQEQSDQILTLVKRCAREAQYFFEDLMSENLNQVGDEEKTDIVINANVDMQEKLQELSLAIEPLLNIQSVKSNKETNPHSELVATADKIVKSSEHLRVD

mass photometry = molecular target: the molecule itself; assay: mass photometry
[3] = molecular target: B2; assay: MST
[4] = molecular target: T2, Sla2:270-350 (complete IDR of Sla2) (Saccharomyces cerevisiae, UniProt P33338 270-350); assay: MST
T2 sequence (looked up): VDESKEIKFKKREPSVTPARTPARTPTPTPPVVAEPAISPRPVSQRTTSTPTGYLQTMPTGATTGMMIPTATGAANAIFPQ

Kd [1]: 81200 nM
Binder: PVSTPARTPARTPTP [Sla2:283-297 peptide]

stoichiometry N [2]: 1 NusA-CLC per Sla2 dimer
B1: NusA conjugated to CLC (NusA-CLC) (natural protein, Saccharomyces cerevisiae, UniProt P17891 1-233, looked up)
chain: MSEKFPPLEDQNIDFTPNDKKDDDTDFLKREAEILGDEFKTEQDDILETEASPAKDDDEIRDFEEQFPDINSANGAVSSDQNGSATVSSGNDNGEADDDFSTFEGANQSTESVKEDRSEVVDQWKQRRAVEIHEKDLKDEELKKELQDEAIKHIDDFYDSYNKKKEQQLEDAAKEAEAFLKKRDEFFGQDNTTWDRALQLINQDDADIIGGRDRSKLKEILLRLKGNAKAPGA

Binder: B2
binding result (Sla2cc ΔSite1 (Δ515-546)): binds

Binder: B3
stoichiometry N (mass photometry): 2

KD of Site 1 (higher affinity site) [3]: ~100 nM | KD of Site 2 (lower affinity site) [3]: 3000 nM
B4: Sla2cc (Sla2 residues 296-767), WildType (domain or fragment, Saccharomyces cerevisiae, UniProt P33338 296-767, looked up)
chain: TPTPPVVAEPAISPRPVSQRTTSTPTGYLQTMPTGATTGMMIPTATGAANAIFPQATAQMQPDFWANQQAQFANEQNRLEQERVQQLQQQQAQQELFQQQLQKAQQDMMNMQLQQQNQHQNDLIALTNQYEKDQALLQQYDQRVQQLESEITTMDSTASKQLANKDEQLTALQDQLDVWERKYESLAKLYSQLRQEHLNLLPRFKKLQLKVNSAQESIQKKEQLEHKLKQKDLQMAELVKDRDRARLELERSINNAEADSAAATAAAETMTQDKMNPILDAILESGINTIQESVYNLDSPLSWSGPLTPPTFLLSLLESTSENATEFATSFNNLIVDGLAHGDQTEVIHCVSDFSTSMATLVTNSKAYAVTTLPQEQSDQILTLVKRCAREAQYFFEDLMSENLNQVGDEEKTDIVINANVDMQEKLQELSLAIEPLLNIQSVKSNKETNPHSELVATADKIVKSSEHLRVD
modifications: RED-NHS dye label (only in the MST against CLC:70-140 and Pan1:777-987)

Binder: B5
Kd [4]: 900 nM
